One experiment has as its target METTL9^M6 R214A (human) (UniProt Q9H1A3). Briefly: ITC; METTL9 protein and synthetic peptide; conditions and who was titrated not shown. Background: Isothermal titration calorimetry measures the heat released or taken up as one component is titrated into another.
The target of experiment [1] is T1, SLC39A5^369–380 peptide, Q6ZMH5.
T1 chain: GHQGHSHGHQGGY
As to the kind of experiment: ITC. The settings on record: chain shown with the change;; parent: 9.0 µM.

These results are taken from PMC10073072.

For GHQGHSHGHQGGY [SLC39A5^369–380 peptide], the fold weaker binding affinity than METTL9^M6 in the experiment with METTL9^M6 R214A (human) is 5 fold.

B1: METTL9^M6 (METTL9^46–318 with six mutations), Q9H1A3 R214A (protein)
chain: HMAAGGRKENHQWYVCNREKLCESLQAVFVQSYLDQGTQIFLNNSIEKSGWAAIQAYHSAVSSAFSLAMSRTSINGLLGRGSMFVFSPDQFQRLLKINPDWKTHRLLDLGAGDGEVTKIMSPHFEEIYATELSETMIWQLQKKKYRVLGINEWQNTGFQYDVISCLNLLDACDQPLTLLKDIRSVLEPTRGRVILALVLPFHPYVENVGGKWEKPSEILEIKGQNWEEQVNSLPEVFRKAGFVIEAFTRLPYLCEGDMYNDYYVLDDAVFVLKPV
The Kd is the free concentration of one partner at which half of the binding sites on the other are occupied at equilibrium, for simple one-to-one binding. Turning to B1, the Kd in experiment [1] is 51 µM.
